In publication PMC3926522:

B1: anti-thrombin aptamer oligonucleotide (structured_DNA)
DNA: CCAACCCAACGGTTGGTGTGGTTGG
modifications: 5' amino
B2: non-thrombin (non-aptamer) oligonucleotide (ssDNA)
DNA: TATGAATTCAATCCGTCGAGCAGAGTT
modifications: 5' amino

Assays:
[1] = molecular target: T1, thrombin (human, UniProt P00734;P00734 315-363;364-622); experiment: whispering gallery mode microsphere resonator
[2] = molecular target: T1, thrombin; experiment: whispering gallery mode microsphere resonator; remark: listed apart in the source

Binder | Kd [1] | binding result [2]
B1 | ~1 µM | 
B2 |  | no binding
